Reference: the nanobody polyreactivity screen of Harvey et al. (2022)

Assay: yeast display, Sf9 membrane polyspecificity reagent, FACS + sequencing; frameworks hold sequencing errors
Procedure, shortened: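 A nanobody's polyreactivity label depends on the gate it was sorted from. Yeast display cells were stained with 10% biotinylated, detergent-solubilized Sf9 membrane reagent for 1 hour at 4 °C, enriched on streptavidin microbeads and sorted by FACS. The low and high (top ~1%) gates were set on anti-HA fluorescence for expression and streptavidin fluorescence for reagent binding.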

Sequence	polyreactivity (PSR sort gate)
QVQLVESGGGLVQAGGSLRLSCAASGSTFPWYAMGWARQAPGKETELVAAITTSGGTTYYADSVKGRFTISRDNAKNTVYLQMNSLKPEDTAVYYCNKQFGYPWEYYSYSYDYWGQGTQVTVSS	low polyreactivity
QVQLVESGGGLVQAGGSLRLICAASGGIIYYYAMGWYRQAPGKERELVAGITSAGSTYYADSVKGRFTISRDNAKNTVYLQMNSLKPEDTAVYYCKDAWPGYYWYYDDDYWGQGTQVTVSS	low polyreactivity
QVQLVESGGGLVQAGGSLRLSCAASGIIIDYNAMGWYRQAHGKERELVAAISSRGGSTYYADSVKGRFTISRDNAKNTVYLQMNSLKPEDTAVYYCAKVIGKYVNSYYWGQGTQVTVSS	low polyreactivity
QVQLVESGGGLVQAGGSLRLSCAASGRIFTKYAMGWYRQAPGKERELVATISKRSGSTYYADSVKGRFTISRDNAKNTVYLQMNSLKPEDTAVYYCARTVGYRTLLESDSWGQGTQVTVSS	high polyreactivity
QVQLVESGGGLVQAGGSLRLSCAGSGSTFVYNAMGWYRQAPGKERELVAAITAAGGRTYYADSVKGRFTISRDTAKNTVYLQMNSLKPEDTAVYYCYTVRPHGMDYWGQGTQVTVSS	high polyreactivity
QVQLVESGGGLVQAGGSLRLSCAASGLILPYYAMGWYSQARGKERELVAAISRTGGRTSYADSVKVRFTISRDNAKNTVYLLINSLKPEDTAVYYCAAVGQSGGRRYDYWGQGTQVTVSS	high polyreactivity
QVQLVESGGGLVQAGGSLRLSCAASGSIFTTNTMGWYRQAPGKERELVAAISSGGGTHYADSVKGRFTISRDNAKNTVYLQMNSLKPEDTAVYYCDARSYYYEWFGDVAMYYWGQGTQVTVSS	low polyreactivity
QVQLVESGGGLVQAGGSLRLSSAASGFIFYQYAMGWYRQAPGKERELVAAISKSGGNTYYADSVKGRFTISRDNAKNTVYLQMNSLKPEDSAVYYCAADRGQRGMYYWGQGTQVSVSS	high polyreactivity
QDQHVESGGGLVQAGGSLRLSCAASGLTFAVYTMGWYRPAAGKERELVAAITWDGGITYYADSVKGRFTISRDNAKNTVYLQMNSLKPEDTAVYYCAADSREVSTTAYYYWGQGTQVTLSS	low polyreactivity
QVQLVESGVGLVQAGGSLRLSCAASGFIFRKYTMGWYRQAPGKERELVATIDSSGGSTYYADSVKGRFTISRDNAKNTVYLQMNSLKPEDTAVYYCNADLRELSPWYWYSGEMDYWGQGTQVTVSS	low polyreactivity
QVQLVESGGGLFQAGGSLRLSCAASGLTFGGNAMGWYRHAPGKERELVAAISSGGSTNYADSVKGRFTISRDNAKNTVYLQMNSLKPEDTAVYYCAVEAWSVPPYDYWGQGTQVTVSS	low polyreactivity
QVQLVESGGGLVQAGGSLRLSCAASGFIFGRYARGWYRQAPVKERELVAAINWSGGSTYYADSVKGRFTISRDNAKNTVYLQMNSLKPEDTAVYYCAARTSRRDGGGSYDYWGQGTQVTVSS	high polyreactivity
QVQLVESGGGLVQAGGSLRLSCAASGLTFSYYAMGWYRPAPGKERELVAAITSSGGNTYYADSVKGRFTISRDNEKNTVYLQMNSLKPEETAVYYCNARRYLRGYGYGYWGQGTQVTVSS	high polyreactivity
QVQLVESGGGLVQAGGSLRLSCAASGLTSNGYHMGWYRQAPGKERELVAGITSGGSTYYADSVKGRFTISRDNAKNTVYLQMNSLKPEDTAVYYCNADVTYYIVWEYDYWGQGTQVTVSS	low polyreactivity
QVQLQESGGGLVLAGGSLRLSCAESGYISWSFTMGWYRKAPGKEREFVAGITYGGITYYADSVKGRFTISRDNAKNTVYLQMNSLKPEDTAVYYCAAPQTYPYVYVYWGQGTQVTVSS	high polyreactivity
QVQLVESGGGLVQAGGSLRLSCAASGSTFVRYAMGWYRQAPGKERELVAAITGTGSSTYYADSVKGRFTISRDNAKNTVYLQMNSLKPEDTAVYYCAKRWRTVFGYDYWGQGTQVTVSS	high polyreactivity
QVQLAESGGGLVQAGGSLRLSCAASGSTFVWYAMGWYRQAPGKEWELVAVIDWSGGSTSYADSVKGRFTISRDNAKNTVYFQMNSLKPEDTAVYYCAADYGHYYGLYYWGQGTQVTVSS	low polyreactivity
QVQLVESGGGLVQAGGSLRISCAASGIIFYTYVMGWYRQAPGKEREFVAGISTSGGRTDYADSVKGRFTISRDNAKNTVYLQMNSLKPEDTAVYYCNADYWQWYSYWYDYWGQGTQVTVSS	high polyreactivity
QDQLGDSGGGLVQAGGSLRLSCAASGFTFGKYAMGWYRQAPGKERELVAAISWSGASTYYADSVKGRFTISRDNAMNTVYLQMNSLKAEDTALYYCAKRDYSYPWFRDYYYWGQGTLVTVSS	low polyreactivity
QVQLVESGGGLVQAGGSLRLSCAASGRTFQVNAMGWYREAPGKERELVAAISIRSGRTYYADSVKGRFTISRYNAKNTVYLQMNSLKPEDTAVYYCAAYRISVYGVGYWGQGTQVTVSS	high polyreactivity
QVQLVESGGGLVQAGGSLRLSCAASGYTFARNAMGWYRQAPGKERELVADINWSGTNTYYADSVKGRFTISRDNAKNTVYLQMNSLKPEDTAVDYCAKDLYFSGYEFDYWGQGTQVTVSS	low polyreactivity
QVQLVESGGGLVQAGGSLRLSCAASGRILGVNAMGGYRQAPGKERELVAAINFSGGGTYYADSVKGRFTISRDNAKNTVYLQMNSLKPEDTAVYYCAAGYVTTWFRYDYWGWGQGTQVTVSS	low polyreactivity

Sequence	polyreactivity (PSR sort gate)
QVQLVESGGGLVQAGGSLRLSCAASGSTFPFYAMGWYRQAPGKERELVAAIRYTGNTYYADSVKGRFTISRDNAKNTVYLQMNSLKPEDTAVYYCAADADYWAYGYWGQGTQVTVSS	low polyreactivity
QVQLQESGGGLVQAGGSLRLSCAASGNISSYYRMGWYRHAPGKEREFVATIAVGGTTNYADSVKGRFTISRDNAKNTVYLQMNSLKPEDTAVCFCAANCNQYTWFDYWGQGTQVPVSS	low polyreactivity
QVQLVESGGGLVQAGGSLRLSCAASGIIFRWYTMGWYRQAPGKERELVAAISSGGSTYYADSVKGRFTISRDNAKNTVYLQMNSLKPEDTAVYYCAARYITTYAYGYWGQGTQVTVSS	high polyreactivity
QVQLVESGGGLVQAGGSLRLSCAASGRTFGRYAMGWYRQAPGKERELVATISVSSGSTYYADSVKGRFTISRDTAKNTVYLQMNSLKPEDTAVYYCNAVYGRQYRGYNYKYYYWGQGTQVTVSS	high polyreactivity
QVQLVESGGGLVQAGGSLRLSCAASGFTFKSNAMGGYRQAPGKEREKVAAIDSRGDRTYYADSVKGRFTISRDNAKNTVYLQMNSLKPEDTAVYYCATKWRTYWSSGEYWGQGTQVTVSS	high polyreactivity
QVQLVESGGGLVQSGGSLRLSCAASGSIFSYYAMGWYRQAPGKEREFVAPHSRSGGSTYYADSVKGRFTISRDNGKNTVYLQMKSLKPEDTAVYYCNAYSYSDAGDDGDYWGQGTQVTVSS	low polyreactivity
QVQLVESGGGLVQAGGSLRCSCSASGGIFVNYAMGWSRPAPGKETELVAAISRSGGSTYYADSVKGRFTISRDNANNTVYLQMNSLKPEDTAVYYCAKRRVYYGSRYHYWGEGTQVTVSS	high polyreactivity
QVQLVESGGGLVQAGGRLRLSCAASGRIFDPYAMGWCRQAPGKESELVASISWSGGRTYYADSVKGRFTISRDNAKNTVYLQMNSLKPEDTAVYYCAAREWYRYKVRFDYWGQGTQVTVSS	high polyreactivity
QVHLVESGGGLVQAGGSLRLSCAASGVIFFYYAMGWYRQAPGKESELVAVIDRSGGTTYYADSVKGRFTISRDNAKNTVYLQMNSLKPEDTAVYYCNADDFTYPSGWGFIYDYWGQGTQVTVSS	low polyreactivity
QVQLVESGGGLVQAGGSLRLSCAASGSTFVAYAMGWYRQAPGKERELVAAISSVGRTNYADSVKGRFTISRDNAKNTVYLQMNSLIPEDTAVYYCNVEPGGITRQEYDYWGQGTQVTVSS	high polyreactivity
QVQLVESGGGLVQAGGSLRLSCAASGSILFTNAMGWYRQAPGKERELVAAISSGGSTYYADSVKGRFTISRDNAKNTVYLQMNSLKPEDSAVYYCAADHLNVGREYVEYDYWGQGTQVTVSS	low polyreactivity
QVQLVESGGGLVQAGGSLRLSCAASGRIFGSYVMGWYRQAPGKERELVAAISRGGSTYYADSVKGRFTISRDNAKNTVYLQLNSLTPEDTAVYYCAAYSIYGTSYLYTQAFYYWGQGTQVTVSS	high polyreactivity
QVQLVESGGGLVQAGGSLRLSCAASGSIFFYYAMGWYRQAPGKERELVATITSGGSTSYADSVKGRFTISRDNAKNTVFLQMNSLKPEDTAVYYCAARKVTKSTYNYWGQGTQVTVSS	low polyreactivity
QVQLVESGGVLVQAGGSLRLSCAASGSTIRLYAMGWYRQAPGKERELVAAIRSGGNTNYADSVKGRFTISRDNAKNSVYLQMKSLKREDTAVYYCNGFCAQLPVPNYDYWGQGPQVTVSS	high polyreactivity
QVQLVESGGGLVQAGGSLRLSCAASGGTFRANAMVWYRQAPGKERELVAAISFRGGTTYYADSVKGRFTISRDNAKTTVYLQMNSLKPEDTAVYYCAAGRRGSYYYWGQGTQVTVSS	high polyreactivity
QVQLVESGGGLVQAGGSLRLSCAASGSIFQSYDMGWSRQAPGKERELVAAITRSGGRTYYAASVKGRFTISRDNAKNTVYLQMNSLKPEDTAVYYCAAFGWGYGYWGQGTQVTVSS	high polyreactivity
QVQLVESGGGLVQAGGSLRLSCAASGSTFFRYAMGWYRQAPGKERELVAAISASGGRTYYADSVKGRFTISRDNAKNTVYLQMNSLKPEDTAVYYCNRQYGPYQYYYWGQGTQVTVSS	high polyreactivity
QVQLVESGGGLVQAGGSLRLSCAASGRTFRYYVMGWYRQAPGKERELVASITWRGTSTYYADSVKGRFTISRDNAKNTVYLQMNSLKPEDTAVYYCNAQGVYFRWSGYDYWGQGTQVTVSS	high polyreactivity
QVQLVESGGGLVQAGGSLRLSCAASGYTFYFYAMGCYRQAPGKERELVAAITGGGTTSYADSVKGRFTISRDNAKNTVYLQMNSLKPEDTAVYYCNVLFADKSDYWGQGTQVTVSS	low polyreactivity
QVQLVESGGGLVQAGGSLRLSCAASGRIFAKNTMGWYRQAPGKERELVAAISRSGGRTYYADSVKGRFTISRDNAKNTVYLQMNSLKPEDTAVYYCSKDVKGSYAYDSWGQGTQVTVSS	high polyreactivity
QVQLVESGGGLVQAGGSLRLSCAASGSTFYSNAMGWYRPAPGKERELVASITRGGSTNYADSVKGRFTISRDNAKNTVYLQMNSLKPEDTAVYYCNAERRYYFYRYDYWGQGTQVTVSS	high polyreactivity
